The chains are these.
B1: OR4K15 (parent)
chain: GUUAACGGUCAUAGGCCAUGGAAACUAGGAGCACCAUUUCGCUGCCAGUGAAGAAAUGAACAAAGAAAAUCUGGGCCAGGCAGGCAUCAAAAGAAAUAGUCUUGCGCUCAACCAGAAAGUCUGUAAUCAUUUUAAGGGUA

The variants in this series derive from B1. The experiment in a line: self-cleavage, relative activity (ratio to wild type); higher = more cleavage; in vitro, sequencing; the parent is a self-cleaving ribozyme.
In the case of A24G A36C, the self-cleavage came to 1.51. The figure for A24G A30U is 1.29; for A24G U127C it is 0.74; for U26A U102C it is 1.69.

Take C25U A111G: the self-cleavage was determined as 0.09. As for U26C A59G, the self-cleavage amounted to 0.96. As to A23U G29A, the self-cleavage turned out to be 2.77. The value for A23U A67G was 1.73; that for A24G A56G was 1.25; that for A24G A56C was 1.02.

For the variant A24G A56U, the self-cleavage came out at 0.97. As to A23U A111G, the self-cleavage amounted to 0.04.

On to A27C A69G, for which the self-cleavage came to 1.34.

As to U26A A51G, the self-cleavage was 1.15. The figure for U26C U102C is 1.65; for C25G A27U it is 1.45. The value for U26C A27U was 1.2; that for U26C A27G was 0.75.

As to A24G A135G, the self-cleavage is 1.67.

For the variant A24G A135U, the self-cleavage worked out at 1.33. The figure for A24C A125U is 2.07. The figure for U26C A54G is 1.61; for U26C A30U it is 1.14. With U26C A30C, the self-cleavage amounted to 0.98. Regarding A23U U102A, the self-cleavage is 1.09. Regarding U26A U100A, the self-cleavage turned out to be 0.98.

Turning to A24G A69G, the self-cleavage was determined as 1.31. For C25U A89G, the self-cleavage turned out to be 1.27. As to U26A A114G, the self-cleavage came to 0.2. On to U26A C81U, for which the self-cleavage amounted to 0.19. The figure for U26C U43C is 0.54; for A24G A92G it is 1.19; for U26C A114U it is 0.07.

Take A27G A52C: the self-cleavage worked out at 1.41. The value for C25U G136A was 1.84; that for C25U A110U was 0.57; that for U26C A63G was 1.48. For the variant A24G A27G, the self-cleavage is 0.97.

Take A24G A27C: the self-cleavage is 0.55. The figure for A24G A129G is 1.15; for U26G A63G it is 2.09. For A24G A91G, the self-cleavage stood at 0.65. As for C25U U131C, the self-cleavage turned out to be 1.57. As to A24C U37C, the self-cleavage was determined as 1.29.

As for A24G C81U, the self-cleavage was 0.64. A24G C81G: the self-cleavage worked out at 0.21. Consider A23U U26C, for which the self-cleavage was determined as 1.23. On to A24G C35U, for which the self-cleavage was determined as 1.12.

Consider C25A A56G, for which the self-cleavage amounted to 1.41. The value for A24U A110G was 0.13.

Consider A24G U49G, for which the self-cleavage turned out to be 0.9. The value for A24G U49C was 1.37.

On to A24G U49A, for which the self-cleavage was 1.37. The value for A23U A135G was 1.35; that for A23U A78G was 0.31. The figure for U26C A96G is 1.5. Regarding A24U U100C, the self-cleavage was 2.08. The value for A24U A135U was 0.83; that for A24U A36C was 1.63; that for A23U A86U was 1.32. Take A23U A86G: the self-cleavage worked out at 0.48. On to A24U A91G, for which the self-cleavage is 1.09. The figure for A23U G41C is 2.09; for C25U A66C it is 1.33.

In the case of C25G A30G, the self-cleavage was 0.59. On to A23U G137A, for which the self-cleavage is 1.46. The value for A24G G73A was 0.29. The figure for C25U A91U is 1.13. A24C A56G: the self-cleavage was found to be 2.01. As for A27G A63G, the self-cleavage amounted to 1.49. The value for A27G A60G was 1.09; that for U26G A96G was 1.78.

Turning to U26C A140G, the self-cleavage came to 1.4. For U26C A118C, the self-cleavage came to 0.51. Take A24C A30U: the self-cleavage was determined as 0.99.

As to U26A U130C, the self-cleavage came to 0.54.

Take U26A U120G: the self-cleavage is 1.26. The value for C25U U102A was 0.79; that for A24G A110G was 0.17.

Consider A24G A110C, for which the self-cleavage was found to be 0.55. The value for U26A G115U was 0.13; that for A24G A86C was 0.43.

For A24G A86U, the self-cleavage came out at 1.44.

As to U26C U139A, the self-cleavage was determined as 1.49. In the case of A24U U102C, the self-cleavage is 1.26. Take A24C U132C: the self-cleavage worked out at 1.46.

In the case of U26G A52C, the self-cleavage was determined as 0.7. In the case of A23U U130C, the self-cleavage came out at 0.7.

In the case of A24U A54G, the self-cleavage is 1.46. The figure for A24U A51U is 1.61; for A24U A51G it is 1.78. As to A24U G123A, the self-cleavage was 1.3. The value for U26C A86U was 1.52. The figure for U26C A86G is 1.33; for U26C A86C it is 0.7; for A23U U72A it is 0.41. Turning to A24C A117G, the self-cleavage was 0.83. The value for A24C A111G was 0.01; that for A23U G93A was 1.85; that for C25U A55G was 1.72. The figure for A24G A98C is 1.76; for A24G A55G it is 0.67; for A24G U39C it is 1.35.

With C25A U38C, the self-cleavage came out at 1.05. In the case of A24U C128A, the self-cleavage turned out to be 1.85. On to C25U A135G, for which the self-cleavage amounted to 1.44.

For the variant A24C U120C, the self-cleavage stood at 1.13. For C25U A67G, the self-cleavage was found to be 1.55. For C25U A129G, the self-cleavage is 1.37. The value for A24G C128U was 0.76; that for U26C G84A was 1.84. The figure for A24G A62U is 1.12; for A24G A62G it is 1.27. Regarding A23U A52G, the self-cleavage turned out to be 1.2. U26C A110C: the self-cleavage is 0.25. Consider U26C A110G, for which the self-cleavage was 0.08.

With A27G A33U, the self-cleavage was 1.16. The value for A27G A33G was 0.96. A23U U39C: the self-cleavage was found to be 1.27.

In the case of A24G A111G, the self-cleavage is 0.03. As to C25U U70C, the self-cleavage was found to be 0.35.

For A24G G84C, the self-cleavage amounted to 0.53. The value for U26C A126U was 1.29; that for A24G A140G was 1.4.

On to A24G A140U, for which the self-cleavage came to 0.89. For the variant A24C A27G, the self-cleavage is 1.25. The figure for U26A U132C is 0.9; for A24U A55G it is 1.53. Regarding U26G A62G, the self-cleavage is 1.02. A23U U100C: the self-cleavage is 2.74. The figure for A24C C40A is 1.99. The figure for A24G C46U is 0.73; for C25G A59G it is 0.57; for A24U A90G it is 1.63. The figure for U26A A129G is 1.36; for U26C A67G it is 1.81. In the case of A24G U133A, the self-cleavage was determined as 1.18. A24G U133C: the self-cleavage was 1.14.

As to A24G A59U, the self-cleavage stood at 0.51. U26C A62U: the self-cleavage came out at 1.84. The figure for A27G A47U is 0.95.

For C25U U57C, the self-cleavage is 1.42. As for U26A A91G, the self-cleavage was determined as 1.38.

On to A24G U122G, for which the self-cleavage was found to be 2.31. As to A24G U57G, the self-cleavage worked out at 0.4. The figure for A24G U97C is 0.1. The value for A27G A30G was 0.69. The value for A27G A36G was 1.26; that for A24U U132C was 2.18. For A24U U43A, the self-cleavage was 1.68. The figure for A27C A78G is 0.21; for A24U A78C it is 0.29; for U26A A96G it is 1.39. Take U26A A92G: the self-cleavage turned out to be 0.89. The value for U26A A59U was 1.22; that for U26C C46U was 0.81. For A24C A90G, the self-cleavage worked out at 0.69. Turning to A27G A54U, the self-cleavage stood at 1.03. Regarding A24C U103C, the self-cleavage was 1.38.

For A23U U108C, the self-cleavage is 0.01. The figure for A23U U97G is 1.35. The figure for U26C A51C is 1.55. For the variant U26C A51U, the self-cleavage is 1.69. The figure for A24G U139G is 1.86. The value for A24G U139A was 1.53; that for A24G U139C was 0.99; that for C25U A54U was 1.33.
